Results: paper doi:10.1101/2024.04.25.591137 (bioRxiv, 2024)

Target: the molecule itself
Test: negative-stain TEM of fibrils

B1: SK9, SARS-CoV-2 envelope protein peptide SFYVYSRVK (peptide)
peptide: Ac-SFYVYSRVK-NH2
binding result: binds

B2: LV20, 20-residue SARS-CoV-2 envelope protein peptide LVKPSFYVYSRVKNLNSSRV (peptide)
peptide: Ac-LVKPSFYVYSRVKNLNSSRV-NH2
binding result: binds
